Common to all, as to conditions: chain copies: 2
One data set deals with T1, IL-17 (IL-17A) (Homo sapiens, UniProt Q16552 Q16552:24-155).
T1 sequence: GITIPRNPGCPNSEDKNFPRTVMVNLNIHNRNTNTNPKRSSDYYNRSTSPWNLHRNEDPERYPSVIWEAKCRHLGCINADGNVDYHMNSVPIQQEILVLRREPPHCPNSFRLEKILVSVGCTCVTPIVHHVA
Kind of data set: cell_activity; IL-6 release, NIH3T3. The protocol: First, human IL-17 and the aptamer produced in Example 1-2 were pre-incubated at 37° C. for 30 min, and added to NIH3T3 cell (ATCC, CRL1658) together with mouse TNFα (2 ng/mL). Then, after incubation for 24 hr, the culture supernatant was collected, and the production amount of IL-6 was measured by ELISA method described below. The IL-17 inhibitory action of each aptamer was determined from the production amount of IL-6. For comparison with the aptamer of the present invention, a conventionally-known aptamer (aptamer No. 50) against IL-17 was used.
ELISA method for verifying IL-17 inhibitory action of aptamer: A microtiter plate for ELISA was coated with rat anti-mouse IL-6 antibody (BD Biosciences, 2 μg/mL; 100 μL/well) diluted with PBS, and incubated at 4° C. overnight. The next day, the microtiter plate was washed 3 times with PBS/0.05% Tween 20, and applied blocking with PBS/1% BSA (200 μL/well) at room temperature for 2 hr. Then, the plate was washed 3 times with PBS/0.05% Tween 20. Recombinant mouse IL-6 (BD Biosciences; 100 μL/well) serially diluted with PBS/1% BSA/0.05% Tween 20 or culture supernatants (100 μL/well) were added to the plate. After incubation at room temperature for 2 hr, the plate was washed 3 times with PBS/0.05% Tween 20. Then, 100 μL/well of biotin conjugated rat anti-mouse IL-6 antibody (BD Biosciences) was added to the plate at final dilution of 1/500, and the mixture was reacted at room temperature for 1 hr. After washing 3 times with PBS/0.05% Tween 20, 100 μL/well of alkaline phosphatase conjugated streptavidin was added at final dilution of 1/1000. After 30 min at room temperature, the plate was again washed 4 times with PBS/0.05% Tween 20, and a substrate (1-Step PNPP; Thermo Fisher Scientific Inc; 100 μL/well) was added. After 15 min, aqueous sodium hydroxide solution (2N: 50 μL/well) was added to stop the reaction, and the plate was read on a microtiter reader (Bio-Rad) by using a 405 nm filter.

For data set [1], the target named is T2, IL-17 (Homo sapiens, UniProt Q16552 Q16552:24-155).
T2 sequence: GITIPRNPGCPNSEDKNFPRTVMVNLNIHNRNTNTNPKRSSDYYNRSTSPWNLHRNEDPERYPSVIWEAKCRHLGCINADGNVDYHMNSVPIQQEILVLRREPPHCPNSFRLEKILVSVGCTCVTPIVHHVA
The experiment in a line: cell_activity; NIH3T3 IL-6 release. How it is done: First, human IL-17 and the aptamer produced in Example 1-1 were pre-incubated at 37° C. for 30 min, and added to NIH3T3 cell (ATCC, CRL1658) together with mouse TNFα (2 ng/mL). Then, after incubation for 24 hr, the culture supernatant was collected, and the amount of IL-6 was measured by BD Cytometric Bead Array (BD Biosciences). The IL-17 inhibitory action of each aptamer was determined from the amount of IL-6. For comparison with the aptamer of the present invention, a conventionally-known aptamer (aptamer No. 50) against IL-17 was used.

The target in data set [2] is T2, IL-17. Kind of data set: SPR; IL-17R-Fc on chip. How it is done: Whether aptamers shown by aptamer Nos. 1-49 inhibit the binding of IL-17 and IL-17 receptor was evaluated by the surface plasmon resonance method.
For the measurement, BIAcore2000 manufactured by BIAcore was used. […] As an analyte, IL-17 (100 or 150 nM) and an aptamer (50 or 100 nM) shown by aptamer No. 1-49 were mixed, maintained for 15 min and after that the mixture was flown.

IC50 and binding signal data for 21 molecules are collected here from patent US20160046944, “APTAMER TO IL-17 AND USE THEREOF” (THE UNIVERSITY OF TOKYO, published 2016).

In general, IC50 refers to the concentration that inhibits the measured activity by half.

B1: aptamer No. 91 (mixed)
mixed: GGGUAGCCGGAGGAGTCAGTAAUCGGUACCC
modifications: g(M)g(M)g(M)u(M)a(M)g(S)c(M)c(M)Gg(M)a(M)gg(M)a(M)g(S)Tc(M)a(F)g(S)Taau(M)c(M)g(M)g(M)u(M)a(M)c(M)c(M)c(M)
B1 returned an IC50 with IL-17 (IL-17A) of 3.86 nM.

B2: aptamer No. 94 (mixed)
RNA: GGGUAGCCGGAGGAGUCAGUAAUCGGUACCC
modifications: g(M)g(M)g(M)u(M)a(M)g(S)c(M)c(M)Gg(M)a(M)gg(M)a(M)g(S)u(F)c(F)a(F)g(S)u(F)aau(M)c(M)g(M)g(M)u(F)a(M)c(M)c(M)c(M)
Molecule B2 showed an IC50 with IL-17 (IL-17A) of 0.29 nM.

B3: aptamer No. 12 (mixed)
mixed: GGGUAGCCGGAGGAGTCAGTAAUCGGUACCC
modifications: 2'-OMe (M), 2'-F (F) as marked; uppercase DNA [1,2,3,4,7,8,10,11,13,14,17,18,21,22,23,24,25,26,27,28]
As for B3, in the data set with IL-17 [1], inhibition was half-maximal at 0.52 nM (IC50). Also, in the data set with IL-17 [2], the binding signal was 24.4 % IL-17/IL-17R binding remaining.

B4: aptamer No. 22 (mixed)
mixed: GGGUAGCCGGAGGAGTCAGTAAUCGGTACCC
modifications: 2'-OMe (M), 2'-F (F) as marked; uppercase DNA [2'-OMe: 1-4,7,8,10,13,14,23-26,28-31; 2'-F: 17]
In the data set with IL-17 [1], B4 returned an IC50 of 1.66 nM.

B5: aptamer No. 79 (ssRNA)
RNA: GGGUAGCCGGAGGAGUCAGUAAUCGGUACCC
modifications: g(M)g(M)g(M)u(M)a(M)gc(M)c(M)gg(M)a(F)gg(M)a(M)gu(F)c(F)a(F)gu(F)a(M)a(M)u(M)c(M)g(M)g(M)u(M)a(M)c(M)c(M)c(M)
Molecule B5 gave an IC50 with IL-17 (IL-17A) of 2.25 nM.

B6: aptamer No. 21 (mixed)
mixed: GGGUAGCCGGAGGAGTCAGTAAUCGGTACCC
modifications: 2'-OMe (M), 2'-F (F), PS (S) as marked; uppercase DNA [2'-OMe: 1-4,7,8,10,13,14,23-26,28-31; 2'-F: 17; PS: 6]
The molecule B6 yielded an IC50 in the data set with IL-17 [1] of 0.39 nM.

B7: aptamer No. 8 (mixed)
mixed: GGGUAGCCGGAGGAGTCAGTAAUCGGUACCC
modifications: 2'-OMe (M), 2'-F (F), PS (S) as marked; uppercase DNA [1,2,3,4,6,7,8,10,11,13,14,17,18,23,24,25,26,27,28]
The molecule B7 gave an IC50 with IL-17 [1] of 0.49 nM. In addition, the binding signal in the data set with IL-17 [2] is 15.3 % IL-17/IL-17R binding remaining.

B8: aptamer No. 6 (mixed)
mixed: GGGUAGCCGGAGGAGTCAGTAAUCGGUACCC
modifications: 2'-OMe (M), 2'-F (F), PS (S) as marked; uppercase DNA; (NI) printed, likely (M) [1,2,3,4,5,6,7,8,10,13,14,17,18,21,22,23,24,25,26,27]
In the case of B8, half-maximal inhibition with IL-17 [1] (IC50) required 0.77 nM. The binding signal with IL-17 [2] is 25.3 % IL-17/IL-17R binding remaining.

B9: aptamer No. 80 (mixed)
RNA: GGGUAGCCGGAGGAGUCAGUAAUCGGUACCC
modifications: g(M)g(M)g(M)u(M)a(M)g(S)c(M)c(M)Gg(M)a(F)gg(M)a(M)gu(F)c(F)a(F)gu(F)a(M)a(M)u(M)c(M)g(M)g(M)u(F)Ac(M)c(M)c(M)
The molecule B9 had an IC50 in the data set with IL-17 (IL-17A) of 1.52 nM.

B10: aptamer No. 11 (mixed)
mixed: GGGUAGCCGGAGGAGTCAGTAAUCGGUACCC
modifications: 2'-OMe (M), 2'-F (F), PS (S) as marked; uppercase DNA [1,2,3,4,6,7,8,10,11,13,14,17,18,21,23,24,25,26,27,28]
Take B10: 0.34 nM corresponded to half-maximal inhibition with IL-17 [1] (IC50). Further, the binding signal with IL-17 [2] was 16.8 % IL-17/IL-17R binding remaining.

B11: aptamer No. 82 (mixed)
mixed: GGGUAGCCGGAGGAGTCAGTAAUCGGUACCC
modifications: g(M)g(M)g(M)u(M)a(M)g(S)c(M)c(M)Gg(M)a(M)gg(M)a(M)g(S)Tc(F)a(F)g(S)Ta(M)a(M)u(M)c(M)g(M)g(M)u(M)a(M)c(M)c(M)c(M)
In the data set with IL-17 (IL-17A), B11 returned an IC50 of 0.48 nM.

B12: aptamer No. 76 (mixed)
RNA: GGGUAGCCGGAGGAGUCAGUAAUCGGUACCC
modifications: g(M)g(M)g(M)u(M)a(M)gc(M)c(M)Gg(M)a(F)gg(M)a(M)gu(F)c(F)a(F)gu(F)a(M)a(M)u(M)c(M)g(M)g(M)u(F)Ac(M)c(M)c(M)
For B12, the IC50 with IL-17 (IL-17A) was found to be 1.7 nM.

B13: aptamer No. 70 (mixed)
RNA: GGGUAGCCGGAGGAGUCAGUAAUCGGUACCC
modifications: g(M)g(M)g(M)u(M)a(M)g(S)c(M)c(M)Gg(M)a(F)gg(M)a(M)g(S)u(F)c(F)a(F)g(S)u(F)a(M)a(M)u(M)c(M)g(M)g(M)u(F)a(M)c(M)c(M)c(M)
As for B13, the midpoint of inhibition with IL-17 (IL-17A), the IC50, lay at 3.28 nM.

B14: aptamer No. 68 (mixed)
RNA: GGGUAGCCGGAGGAGUCAGUAAUCGGUACCC
modifications: g(M)g(M)g(M)u(M)a(M)g(S)c(M)c(M)Gg(M)a(F)gg(M)a(M)g(S)u(F)c(F)a(F)g(S)u(F)a(M)a(M)u(M)c(M)g(M)g(M)u(F)Ac(M)c(M)c(M)
In the data set with IL-17 (IL-17A), B14 had an IC50 of 2.4 nM.

B15: aptamer No. 90 (mixed)
mixed: GGGUAGCCGGAGGAGTCAGTAAUCGGUACCC
modifications: g(M)g(M)g(M)u(M)a(M)g(S)c(M)c(M)Gg(M)a(M)gg(M)a(M)g(S)Tc(M)a(F)g(S)Ta(M)au(M)c(M)g(M)g(M)u(M)a(M)c(M)c(M)c(M)
In the data set with IL-17 (IL-17A), B15 showed an IC50 of 1.08 nM.

B16: aptamer No. 87 (mixed)
mixed: GGGUAGCCGGAGGAGTCAGTGAUCGGUACCC
modifications: g(M)g(M)g(M)u(M)a(M)g(S)c(M)c(M)Gg(M)a(M)gg(M)a(M)g(S)Tc(M)a(F)g(S)Tga(M)u(M)c(M)g(M)g(M)u(M)a(M)c(M)c(M)c(M)
In the case of B16, the IC50 in the data set with IL-17 (IL-17A) came out at 3.23 nM.

B17: aptamer No. 59 (mixed)
mixed: GGGUAGCCGGAGGAGTCAGTAAUCGGUACCC
modifications: g(M)g(M)g(M)u(M)Ag(S)c(M)c(M)Gg(M)a(F)gg(M)a(M)g(S)Tc(F)a(F)g(M)Ta(M)a(M)u(M)c(M)g(M)g(M)u(F)a(M)c(M)c(M)c(M)
For the molecule B17, inhibition in the data set with IL-17 (IL-17A) was half-maximal at 1.19 nM (IC50).

B18: aptamer No. 78 (mixed)
mixed: GGGUAGCCGGAGGAGTCAGTAAUCGGUACCC
modifications: g(M)g(M)g(M)u(M)a(M)gc(M)c(M)Gg(M)a(F)gg(M)a(M)gTc(F)a(F)gTa(M)a(M)u(M)c(M)g(M)g(M)u(M)a(M)c(M)c(M)c(M)
For B18, 1.36 nM corresponded to half-maximal inhibition in the data set with IL-17 (IL-17A) (IC50).

B19: aptamer No. 65 (mixed)
mixed: GGGUAGCCGGAGGAGTCAGTAAUCGGUACCC
modifications: g(M)g(M)g(M)u(M)a(M)g(S)c(M)c(M)Gg(M)a(F)gg(M)a(M)gTc(F)a(F)gTa(M)a(M)u(M)c(M)g(M)g(M)u(M)a(M)c(M)c(M)c(M)
B19: the IC50 with IL-17 (IL-17A) stood at 0.67 nM.

B20: aptamer No. 60 (mixed)
mixed: GGGUAGCCGGAGGAGTCAGTAAUCGGUACCC
modifications: g(M)g(M)g(M)u(M)a(M)g(S)c(M)c(M)Gg(M)a(F)gg(M)a(M)g(S)Tc(F)a(F)g(M)Ta(M)a(M)u(M)c(M)g(M)g(M)u(F)a(M)c(M)c(M)c(M)
B20 gave an IC50 in the data set with IL-17 (IL-17A) of 2.35 nM.

B21: aptamer No. 62 (mixed)
mixed: GGGUAGCCGGAGGAGTCAGTAAUCGGUACCC
modifications: g(M)g(M)g(M)u(M)a(M)g(S)c(M)c(M)Gg(M)a(F)gg(M)a(M)gTc(F)a(F)gTa(M)a(M)u(M)c(M)g(M)g(M)u(F)a(M)c(M)c(M)c(M)
As to B21, the IC50 with IL-17 (IL-17A) was 0.69 nM.
